# Measurements taken from US20260049138A1.
# Target: CD3ε homodimer protein (human) (UniProt P07766)
# Assay: SPR
# Chain of CD3ε homodimer protein (human) (P07766 23-126 limits assumed): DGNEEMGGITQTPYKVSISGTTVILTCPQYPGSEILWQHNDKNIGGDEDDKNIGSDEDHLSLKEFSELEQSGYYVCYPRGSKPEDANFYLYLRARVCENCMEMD
row,KD ratio to GLS3000,Binder
1,13000,"GLS3000 H27dT (antibody, name in Kabat numbering, V domains shown) VH: QVQLVESGGGVVQPGRSLRLSCAASGFTFSNAWMHWVRQAPGKGLEWVAQIKAKSNNYATYYAESVKGRFTISRDDSKNSLYLQMNSLKTEDTAVYYCRYVHYGAYYGVDAWGQGTTVTVSS VL: DIVMTQSPLSLPVTPGEPASISCRSSQSLVTSNRNTYLHWYQQKPGQAPRLLIYKVSNRFSGVPDRFSGSGSGTDFTLKISRVEAEDVGVYYCGQGTQVPYTFGQGTKLEIK"
2,4460,"GLS3000 N28D (antibody, name in Kabat numbering, V domains shown) VH: QVQLVESGGGVVQPGRSLRLSCAASGFTFSNAWMHWVRQAPGKGLEWVAQIKAKSNNYATYYAESVKGRFTISRDDSKNSLYLQMNSLKTEDTAVYYCRYVHYGAYYGVDAWGQGTTVTVSS VL: DIVMTQSPLSLPVTPGEPASISCRSSQSLVHSDRNTYLHWYQQKPGQAPRLLIYKVSNRFSGVPDRFSGSGSGTDFTLKISRVEAEDVGVYYCGQGTQVPYTFGQGTKLEIK"
3,72100,"GLS3000 G91S (antibody, name in Kabat numbering, V domains shown) VH: QVQLVESGGGVVQPGRSLRLSCAASGFTFSNAWMHWVRQAPGKGLEWVAQIKAKSNNYATYYAESVKGRFTISRDDSKNSLYLQMNSLKTEDTAVYYCRYVHYGAYYGVDAWGQGTTVTVSS VL: DIVMTQSPLSLPVTPGEPASISCRSSQSLVHSNRNTYLHWYQQKPGQAPRLLIYKVSNRFSGVPDRFSGSGSGTDFTLKISRVEAEDVGVYYCGQSTQVPYTFGQGTKLEIK"
4,354,"GLS3000 H27dV (antibody, name in Kabat numbering, V domains shown) VH: QVQLVESGGGVVQPGRSLRLSCAASGFTFSNAWMHWVRQAPGKGLEWVAQIKAKSNNYATYYAESVKGRFTISRDDSKNSLYLQMNSLKTEDTAVYYCRYVHYGAYYGVDAWGQGTTVTVSS VL: DIVMTQSPLSLPVTPGEPASISCRSSQSLVVSNRNTYLHWYQQKPGQAPRLLIYKVSNRFSGVPDRFSGSGSGTDFTLKISRVEAEDVGVYYCGQGTQVPYTFGQGTKLEIK"
5,4130,"GLS3000 G89R (antibody, name in Kabat numbering, V domains shown) VH: QVQLVESGGGVVQPGRSLRLSCAASGFTFSNAWMHWVRQAPGKGLEWVAQIKAKSNNYATYYAESVKGRFTISRDDSKNSLYLQMNSLKTEDTAVYYCRYVHYGAYYGVDAWGQGTTVTVSS VL: DIVMTQSPLSLPVTPGEPASISCRSSQSLVHSNRNTYLHWYQQKPGQAPRLLIYKVSNRFSGVPDRFSGSGSGTDFTLKISRVEAEDVGVYYCRQGTQVPYTFGQGTKLEIK"
6,85800,"GLS3000 H34R (antibody, name in Kabat numbering, V domains shown) VH: QVQLVESGGGVVQPGRSLRLSCAASGFTFSNAWMHWVRQAPGKGLEWVAQIKAKSNNYATYYAESVKGRFTISRDDSKNSLYLQMNSLKTEDTAVYYCRYVHYGAYYGVDAWGQGTTVTVSS VL: DIVMTQSPLSLPVTPGEPASISCRSSQSLVHSNRNTYLRWYQQKPGQAPRLLIYKVSNRFSGVPDRFSGSGSGTDFTLKISRVEAEDVGVYYCGQGTQVPYTFGQGTKLEIK"

# Target: biotinylated CD3ε epitope peptide
# Assay: SPR, Biacore T100, biotinylated CD3ε epitope peptide on CM5 via streptavidin, antibody as analyte
row,Kd [nM],Binder
1,67,"CE115_M (antibody, V domains shown) VH: EVQLVETGGSLVQPGKSLKLTCATSGFTFSNAWMHWVRQSPEKQLEWVAQIKAKSNNYATYYAESVKGRFTISRDDSKSNIYLQMNSLKEEDTAVYYCRYVHYGAYYGVDAWGQGTSVTVSS VL: DVVMTQTPVSMSVSLGGQVSISCRSSQSLVHNNGNTYVSWYIQKPSQSPQLLIYKVSNRFSGISDRFSGSGSGTDFTLKISRVEPDDLGVYYCGQGTQDPYTFGAGTKLELK"
